Laboratory results taken from the supplement of paper PMC9170038.

system: K4 kissing-loop RNA reporter; assay: apparent KD of K4 kissing-loop reporter; higher = weaker reporter binding; conditions: Eterna round: R107; input ligand: arginine 13.2 mM
Method: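 RNA-MaP round R107: designed RNA switches with theophylline, tryptophan, arginine or FMN aptamers are transcribed on-chip within common flanks. They are titrated with a labelled K4 kissing-loop RNA reporter in RNA-MaP buffer (100 mM Tris pH 7.5, 80 mM KCl, 4 mM MgCl2), without ligand or with the indicated ligand. Median apparent KD per design.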
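Further: bound reporter read as fluorescence of individual clusters on recovered sequencing chips by microscopy, with normalized cluster intensities fitted with a binding model.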

Sequence	apparent KD of K4 kissing-loop reporter [nM]
GCCGUAGAUGGAAGGAGCGUGAUAAGUGAAUUAUCCAGUGAUGUUGGAUCUUAGAUAGGAUCACAGGUAGGUCGCCAUCUACGGC	181
GUAGACGUACCUUCAGUGAUGUUGAAGGAUACCAGAUGUUAUCACAUCCCUUGGCAGCCUUGGGAUAACAGUGAGUCGGAAUAUG [Essoaran]	142
UGUGUUGUGUAGUGUUAUGUUUUGAGGGAUACCAGAGUGUUUUUAUUCCCUUGGCAGCUUGAGUGAUGUUUGAUGUUGUUGUUGU [jlljmullin]	178
CAUACGCAUGGAGGAUAUGAGAUUUCUCAUAUUAUUUAAUAUUCUCAGUGAUGUUGAGAAAUAAACUCAGAAGGCCAUGUGUAUG [Ex FMN B 3]	365
GUACCUUGGAAACAAGGACCGCUAACCGAAGGAGCGCGUGAAAACGCAGGUAGGUCGCGGUAGCGGAGUGAUGUUCCGCGAGAGG [Excluson Arginine A GF 14]	235
AGGUCCGAGCCCGGAAGGGCUCGGACCUGUUAGGAUAUGACGUUAUUCAGAAGGGAUGGGUGGAGUGAUGUUCCACCCGCAAGGG [#2 Same State - FMN A Attempt #9 (HarryS)]	96.3

same assay, conditions: Eterna round: R107; input ligand: none

Sequence	apparent KD of K4 kissing-loop reporter [nM]
GUGCAGUGAUGUUGCACGAGGAAAGACGAUACCAGCCGUAAAUAAGGCCCUUGGCAGCGUGGGCUAGCAUAAAGUACGCUAGUCU [Mara]	109
AAAUAACAGGCAGGAUAUGCUUAGUAAUAAGGCCAUAUAUACGUAUAGAGUGAUGUUUUGUACAAAGCAGAAGGGCUAAAUCCAU [FMN B Excl V1]	160
UUUGGAUUGCACUAAGAGCGCAAGCGCCAACGAGGACCGGUACGGCCGCCACUCGCGGAGGAGUCCAGUGAUGUUGGACGGCCCG [Onenusan]	359
UGACUGGAUGGAAGGAGCGCUAAACUCCUAGUGAUGUUAGGGAUAUGAGGCAAAGCCUUGAGGCAGGUAGGUCGCCAUCUAGUCU [FiskerMod 25 - Jieux - Same State - Arginine B]	131
CUAUAAGUGCCGAGUGAUGUUCGGCCAAUACGAGGACCGGUACGGCCGCCACUCGGUCAGUGAGUGCCCACCGGGCGUGGCUGAC [Leedgeis]	209
CCGAAGAACCAGUGAUGUUGGUUGACUAGACAGGAUAUGAGCAACAUCAGAAGGGUCUGGCUUCGGGAGUGGGUCACGCUGACCU [Iserreanor]	426
GCUAUGGUAGGAAGGAGCGCUACUUUGUUUUUACGAGUGAUGUUCGGUAGCAGAGUGUUAAAGCAGGUAGGUCGCCUACUAUAGC [Arginine B K4 19]	244
GCAUAGGCCCAUCGGAAUUCGAGACCAGCACGAGGACCGGUACGGCCGCCACUCGUGCAGUGAUGUUGCACGAUUGGGAAACCGC [Beanveceti]	101
ACGUGCACCAGUGAUGUUGGAAAAUAUGAAGGAGCGGGAGAAAACCCAGGUAGGUCGCAUAAUAGCACGAGCCACGAAAGUGGCA	122
AAUUCUCUUUUUGAUACCAGCGAAUCUGAGUGAUGUUCUAAGCCAUACAAUUGAGUAAAUCGCCCUUGGCAGCAAUUCGUGGGUG [theeternabot_exclusion_KL_Theo_B_20]	724
UCGCACCUGUGGGCGAGGCCUAUAAUUGUCAAGGAUAUAGAUCAUUCUAGAAGGUGACACUUCGCGAGUGAUGUUCGGGAAAUGC [theeternabot_sameState_KL_FMN_A_8]	273
GACGGGCAGUGAUGUUGCCGGUCUCUUGGACGAGGACCGGUACGGCCGCCACUCGAUCUGAUGCAAGAAUCGCAUCUUUUAAUAA [Biququan]	166
AAAGACUGACUGCAAUUAGCAGUCAGUCAACGAGGACCGGUACGGCCGCCACUCGGGUCCUAGAGUGAUGUUCUAAUAAUAUAAU [Default title]	432
GCCUAGGCUCGAAAGAGCCUAGGCUGGGCUCAGGAUAUCCGGAAACGGAGAAGGGAGGGACUAGUGAUGUUAGGGAUUCCCUAUG	290
CCAUCGCUAUUCGAUACCAGUCAAGAGGUCUUUGGCCUCUUAAUGGAGUGAUGUUCCUUAGACCCUUGGCAGCGAAUAGUGAUGG [Theophylline B K4 13]	237
AACGCUGCCUGAGGAUAUAGAAACGAGUGAUGUUCGUGGAACGAGACCAGUGAUGUUGGCCUAUUUCUAGAAGGCAGGCAACCGC [Exclusion FMN B GF 1]	148
AACGCUCAAUAGAGAGUGAUGUUCUCUAUACGAGGACCGGUACGGCCGCCACUCGAAUGUAUAGCGAAACGCUAUACACAGUGGU [Tryp A SS t2]	152
AAAAUAAACCAGUGAUGUUGGUGUCUAGAUACCAGCGAUAAUAAUCGCCCUUGGCAGCUACGGACGUACAAAAUAAGUACGUCCU [MatMod 10 - Jieux - Same State - Theophylline A]	454
CGCAGUGAUGUUGCUAUUGUUCUUGGUUAACGAGGACCGGUACGGCCGCCACUCGAUGUCUGUCUAGUCCAGUGUUUUUUUGAGU [whbob_EX_Tryp_A_t9]	592
UGACAUUGCUCAGAUACCAGUCAUGAGGAUCACCCAUGGGCCAAACGUACAAUAAUAAAUGACCCUUGGCAGCUGAGCAAUGUCU [TheoBX 14]	55.4
CCUAUCUCGUAGGAUACCAGACUAUGAUCUAUGAUCAAUGCCAUCACCGAGUGAUGUUCGGUCCCUUGGCAGCCUAUGAGAUGGG [#13 K4 Theophylline B Exclusion]	159
UUAUUAUUCAGUGAUGUUGAAUUUAUUUCAGAGGAUAUGCAUAAAUGCAGAAGGCUGUAAUACUAUACUUUAAUAAAUUAAAUUU [JR_SSFMNA_Sub018]	248
